Measured values published in US20180171029A1 (REGENTS OF THE UNIVERSITY OF MINNESOTA, published 2018).

How the values were obtained:
[1] = target: T1, HA-tagged human APOBEC3B (A3B-HA) (human, UniProt Q9UH17 1-382); experiment: hybridoma screening (ELISA-positive clones, then immunoblot of A3-HA lysates and immunofluorescence)
T1 construct: Expressed by transient transfection in 293T cells; lysate resolved by SDS-PAGE (denatured) for the immunoblot; not shown: HA tag

[2] = target: T2, HA-tagged human APOBEC3A (A3A-HA) (human, UniProt P31941 1-199); experiment: immunoblot of 293T lysates with A3-HA proteins (FIG. 3), hybridoma supernatant
T2 construct: Expressed by transient transfection in 293T cells; lysate resolved by SDS-PAGE (denatured) for the immunoblot; not shown: HA tag
Source text: (§1) Cell lysates from 293T cells transiently transfected with each HA-tagged APOBEC3 protein (A3A-HA, A3B-HA, A3C-HA, A3D-HA, A3F-HA, A3G-HA, A3H-HA) or the expression vector alone were resolved by 12% SDS-PAGE and transferred to PVDF membrane. […] Membranes were further probed with the appropriate secondary antibodies including anti-rabbit IgG IR800CW (Odyssey 926-32211, LI-COR Biosciences, Lincoln, Nebr.) 1/20,000 or anti-mouse IgG IR800CW (Odyssey 827-08364, LI-COR Biosciences, Lincoln, Nebr.) 1/20,000 in 50% Blok (WBAVDP001, Millipore, Darmstadt, Germany) in PBS-T, (PBS, 0.1% Tween-20) and images were generated using LI-COR imaging (LI-COR Biosciences, Lincoln, Nebr.).

[3] = target: T1, HA-tagged human APOBEC3B (A3B-HA); experiment: as above
Source text: as §1

[4] = target: T3, endogenous human APOBEC3B (A3B) of cancer cell lines (human, UniProt Q9UH17 1-382); experiment: intracellular flow cytometry, OVCAR5 and MDA-MB-468 cells with control or A3B shRNA
T3 construct: whole, on cells; Untagged endogenous, intracellular protein: detected in fixed and permeabilised cells (immunofluorescence, flow cytometry) and in cell lysates (immunoblot); also called endogenous A3B
Experimental: OVCAR5 (Monks et al., 1991, J. Natl. Cancer Inst. 83:757-766) and MDA-MB-468 (ATCC HTB-132, ATCC, Manassas, Va.) cells were transduced with lentiviruses encoding either a control or A3B-specific shRNA. Following drug selection (puromycin), cells were fixed in 1% paraformaldehyde and permeabilized in cold methanol. […] After a single PBS wash to remove unbound antibody, cells were analyzed on a flow cytometer.

T2 sequence (P31941 whole entry): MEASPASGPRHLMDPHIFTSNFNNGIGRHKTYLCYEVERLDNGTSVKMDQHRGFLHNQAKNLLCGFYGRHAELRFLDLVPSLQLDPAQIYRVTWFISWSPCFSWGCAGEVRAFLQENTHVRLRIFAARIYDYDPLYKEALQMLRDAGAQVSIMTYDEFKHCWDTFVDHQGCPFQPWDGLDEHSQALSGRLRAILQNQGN
T1 sequence (Q9UH17 whole entry): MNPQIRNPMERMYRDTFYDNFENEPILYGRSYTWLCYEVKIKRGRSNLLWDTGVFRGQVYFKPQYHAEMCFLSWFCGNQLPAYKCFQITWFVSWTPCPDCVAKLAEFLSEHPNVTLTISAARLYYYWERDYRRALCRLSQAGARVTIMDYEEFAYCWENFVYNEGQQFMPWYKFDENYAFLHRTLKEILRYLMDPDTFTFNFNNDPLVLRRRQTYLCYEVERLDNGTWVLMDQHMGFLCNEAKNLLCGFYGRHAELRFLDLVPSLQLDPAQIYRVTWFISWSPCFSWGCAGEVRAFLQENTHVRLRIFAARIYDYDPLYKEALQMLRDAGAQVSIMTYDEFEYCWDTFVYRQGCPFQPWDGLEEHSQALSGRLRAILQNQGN
T3 sequence (Q9UH17 whole entry): as above

| binding result [1] | binding result [2] | binding result [3] | binding result [4] | Binder |
| --- | --- | --- | --- | --- |
| binds | binds |  |  | monoclonal antibody produced by hybridoma cell line 5210-08-15 (antibody, V domains shown, Rabbit monoclonal antibody, tested as hybridoma culture supernatant; The Ig chain entries come from cDNA and may include a leader peptide; no cleavage site stated) VH: QEQLEESGGGLVKPGGTLTLTCKASGFSFSDGYWMCWIRQAPGKGLEWIGCIYDASGGAYFPSWAKGRFTISKTSSTTVTLEMTSLTDADTAIYFCVKTDYGSSKLWGPGTLVTVSS VL: AVVLTQTASPVSAPVGGTVTINCQASQNIYSNLAWYQQKPGQPPKLLIYGASTLASGVSSRFKGSRSGTEFTLTISDLECADAATYYCQSYVYSSSTADTFGGGTKVVVEV |
|  | binds | binds | binds | monoclonal antibody produced by hybridoma cell line 5210-87-13 (antibody, V domains shown, Rabbit monoclonal antibody; hybridoma supernatant in the screens, mAb preparation in the work on endogenous A3B; The Ig chain entries come from cDNA and may include a leader peptide; no cleavage site stated) VH: QSVKESEGGLFKPTDTLTLTCTVSGFSLSSYRMHWVRQAPGNGLEWIGSISSGGNAAYARWANTRSTITRNTNLNTVTLKMTSLTAADTATYFCGSNVIWGPGTLVTVSS VL: DPVLTQTPSSVSAAVGGTVTISCQSSESVFKKNWLAWYHQKPGQSPKRLIYGASTLESGAPSRFRGSGSGTQFTLTISDLECGDAATYYCAGAFDGNIYPFGGGTEVVVKG |
